B1: Fanconi anemia group J protein (Homo sapiens), Q9BX63 (parent)
chain: MSSMWSEYTIGGVKIYFPYKAYPSQLAMMNSILRGLNSKQHCLLESPTGSGKSLALLCSALAWQQSLSGKPADEGVSEKAEVQLSCCCACHSKDFTNNDMNQGTSRHFNYPSTPPSERNGTSSTCQDSPEKTTLAAKLSAKKQASIYRDENDDFQVEKKRIRPLETTQQIRKRHCFGTEVHNLDAKVDSGKTVKLNSPLEKINSFSPQKPPGHCSRCCCSTKQGNSQESSNTIKKDHTGKSKIPKIYFGTRTHKQIAQITRELRRTAYSGVPMTILSSRDHTCVHPEVVGNFNRNEKCMELLDGKNGKSCYFYHGVHKISDQHTLQTFQGMCKAWDIEELVSLGKKLKACPYYTARELIQDADIIFCPYNYLLDAQIRESMDLNLKEQVVILDEAHNIEDCARESASYSVTEVQLRFARDELDSMVNNNIRKKDHEPLRAVCCSLINWLEANAEYLVERDYESACKIWSGNEMLLTLHKMGITTATFPILQGHFSAVLQKEEKISPIYGKEEAREVPVISASTQIMLKGLFMVLDYLFRQNSRFADDYKIAIQQTYSWTNQIDISDKNGLLVLPKNKKRSRQKTAVHVLNFWCLNPAVAFSDINGKVQTIVLTSGTLSPMKSFSSELGVTFTIQLEANHIIKNSQVWVGTIGSGPKGRNLCATFQNTETFEFQDEVGALLLSVCQTVSQGILCFLPSYKLLEKLKERWLSTGLWHNLELVKTVIVEPQGGEKTNFDELLQVYYDAIKYKGEKDGALLVAVCRGKVSEGLDFSDDNARAVITIGIPFPNVKDLQVELKRQYNDHHSKLRGLLPGRQWYEIQAYRALNQALGRCIRHRNDWGALILVDDRFRNNPSRYISGLSKWVRQQIQHHSTFESALESLAEFSKKHQKVLNVSIKDRTNIQDNESTLEVTSLKYSTSPYLLEAASHLSPENFVEDEAKICVQELQCPKIITKNSPLPSSIISRKEKNDPVFLEEAGKAEKIVISRSTSPTFNKQTKRVSWSSFNSLGQYFTGKIPKATPELGSSENSASSPPRFKTEKMESKTVLPFTDKCESSNLTVNTSFGSCPQSETIISSLKIDATLTRKNHSEHPLCSEEALDPDIELSLVSEEDKQSTSNRDFETEAEDESIYFTPELYDPEDTDEEKNDLAETDRGNRLANNSDCILAKDLFEIRTIKEVDSAREVKAEDCIDTKLNGILHIEESKIDDIDGNVKTTWINELELGKTHEIEIKNFKPSPSKNKGMFPGFK

Variants of: B1
Settings: with brca1_human BRCA1, P38398
brca1_human BRCA1, P38398, sequence (P38398 whole entry, looked up): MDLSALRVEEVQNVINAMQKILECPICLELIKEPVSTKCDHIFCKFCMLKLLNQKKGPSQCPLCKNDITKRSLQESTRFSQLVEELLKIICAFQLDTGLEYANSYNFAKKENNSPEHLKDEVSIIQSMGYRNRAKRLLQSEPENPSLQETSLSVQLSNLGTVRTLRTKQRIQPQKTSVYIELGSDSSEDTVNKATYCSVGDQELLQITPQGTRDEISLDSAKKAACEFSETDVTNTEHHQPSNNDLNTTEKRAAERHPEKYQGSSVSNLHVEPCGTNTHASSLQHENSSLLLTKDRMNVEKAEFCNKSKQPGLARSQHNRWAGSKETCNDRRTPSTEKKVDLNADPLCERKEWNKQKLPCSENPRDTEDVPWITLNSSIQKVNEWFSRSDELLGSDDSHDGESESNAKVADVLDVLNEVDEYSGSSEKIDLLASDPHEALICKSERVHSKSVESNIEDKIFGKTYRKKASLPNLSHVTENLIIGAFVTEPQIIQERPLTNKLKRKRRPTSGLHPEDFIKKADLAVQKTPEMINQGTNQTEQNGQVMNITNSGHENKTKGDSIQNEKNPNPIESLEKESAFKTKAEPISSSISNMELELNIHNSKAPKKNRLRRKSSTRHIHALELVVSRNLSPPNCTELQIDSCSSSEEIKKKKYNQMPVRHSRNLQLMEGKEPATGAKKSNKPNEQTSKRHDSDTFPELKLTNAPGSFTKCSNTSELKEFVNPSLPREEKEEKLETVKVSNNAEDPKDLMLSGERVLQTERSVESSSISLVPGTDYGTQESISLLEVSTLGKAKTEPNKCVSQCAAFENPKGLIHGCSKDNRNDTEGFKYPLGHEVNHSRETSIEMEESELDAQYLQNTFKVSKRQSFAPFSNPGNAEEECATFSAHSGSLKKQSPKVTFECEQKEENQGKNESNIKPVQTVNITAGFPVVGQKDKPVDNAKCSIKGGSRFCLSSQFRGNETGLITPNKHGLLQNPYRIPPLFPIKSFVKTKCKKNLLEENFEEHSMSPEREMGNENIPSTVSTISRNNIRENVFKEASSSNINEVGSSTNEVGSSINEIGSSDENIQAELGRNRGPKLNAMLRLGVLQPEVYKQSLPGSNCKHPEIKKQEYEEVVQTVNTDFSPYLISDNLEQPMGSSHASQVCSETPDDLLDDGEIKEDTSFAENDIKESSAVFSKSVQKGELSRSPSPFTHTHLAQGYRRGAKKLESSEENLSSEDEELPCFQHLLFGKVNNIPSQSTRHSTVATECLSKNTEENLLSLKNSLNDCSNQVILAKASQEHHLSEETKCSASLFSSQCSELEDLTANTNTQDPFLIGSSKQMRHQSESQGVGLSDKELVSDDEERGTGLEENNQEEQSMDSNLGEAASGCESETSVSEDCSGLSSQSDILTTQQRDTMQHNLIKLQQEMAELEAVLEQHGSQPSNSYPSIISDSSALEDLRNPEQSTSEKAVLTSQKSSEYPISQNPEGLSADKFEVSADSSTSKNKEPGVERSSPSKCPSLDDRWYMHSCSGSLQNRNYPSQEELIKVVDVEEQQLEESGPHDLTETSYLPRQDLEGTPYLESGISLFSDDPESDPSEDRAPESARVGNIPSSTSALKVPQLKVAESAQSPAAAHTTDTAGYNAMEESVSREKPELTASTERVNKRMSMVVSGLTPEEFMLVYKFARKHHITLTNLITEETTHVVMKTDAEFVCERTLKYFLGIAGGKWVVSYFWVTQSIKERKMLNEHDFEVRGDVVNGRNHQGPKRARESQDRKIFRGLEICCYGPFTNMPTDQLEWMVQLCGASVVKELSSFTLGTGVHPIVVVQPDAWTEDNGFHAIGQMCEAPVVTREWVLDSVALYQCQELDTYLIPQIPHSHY

Row | effect of a mutation on the interaction | Variant
1 | disrupting interaction | S990A
